± gives the uncertainty stated by the source.

B1: Transitional endoplasmic reticulum ATPase, residues 26 to 106; numbered along this chain, P55072 (parent)
chain: LIVDEAINEDNSVVSLSQPKMDELQLFRGDTVLLKGKKRREAVCIVLSDDTCSDEKIRMNRVVRNNLRVRLGDVISIQPCP

This data set covers variants of B1. Kind of data set: abundance fitness (aPCA) (normalised: wild type 0, dead -1); higher = more abundant; growth selection in yeast, the domain comes from the species named. The note with it: Homo sapiens.
With L16Q, the abundance fitness was -0.584 ± 0.1.

With L16W, the abundance fitness is -0.912 ± 0.14.

L16T: the abundance fitness was -0.793 ± 0.14.

Turning to L16C, the abundance fitness is -0.083 ± 0.087.

For the variant L16K, the abundance fitness is -0.783 ± 0.15.

For the variant L16S, the abundance fitness is -0.595 ± 0.072.

For the variant L16I, the abundance fitness is -0.005 ± 0.075.

Take L16V: the abundance fitness is -0.139 ± 0.043.

For L16A, the abundance fitness was -0.65 ± 0.062.

In the case of L16P, the abundance fitness was -0.788 ± 0.13.

As to L16G, the abundance fitness is -0.895 ± 0.063.

For L16N, the abundance fitness was -0.766 ± 0.29.

In the case of L16E, the abundance fitness is -0.762 ± 0.15.

As for L16F, the abundance fitness is -0.267 ± 0.085.

Consider S17I, for which the abundance fitness is -0.79 ± 0.17.

With S17G, the abundance fitness is -0.153 ± 0.043.

On to S17M, for which the abundance fitness was -0.995 ± 0.15.

For S17H, the abundance fitness was -0.396 ± 0.38.

Regarding S17F, the abundance fitness was -0.698 ± 0.18.

Turning to S17Q, the abundance fitness was -0.671 ± 0.1.

As to S17A, the abundance fitness is -0.174 ± 0.052.

For the variant S17R, the abundance fitness is -0.431 ± 0.043.

Take S17C: the abundance fitness is -0.381 ± 0.11.

As to S17V, the abundance fitness is -1.03 ± 0.26.

Turning to S17D, the abundance fitness is -1.01 ± 0.34.

As for S17K, the abundance fitness is -0.361 ± 0.097.

For S17Y, the abundance fitness was -0.806 ± 0.21.

On to S17P, for which the abundance fitness is -0.365 ± 0.069.

As for S17L, the abundance fitness is -0.854 ± 0.11.

Regarding N11S, the abundance fitness was found to be 0.039 ± 0.051.

Regarding N11W, the abundance fitness is -0.26 ± 0.069.

Consider N11G, for which the abundance fitness is -0.067 ± 0.04.

N11A: the abundance fitness was -0.105 ± 0.048.

For the variant N11L, the abundance fitness is -0.007 ± 0.053.

On to N11K, for which the abundance fitness was -0.084 ± 0.12.

Regarding N11P, the abundance fitness is -0.011 ± 0.071.

For the variant N11H, the abundance fitness came out at 0.103 ± 0.089.

Regarding N11F, the abundance fitness is -0.208 ± 0.18.

For N11C, the abundance fitness is -0.091 ± 0.059.

N11V: the abundance fitness is -0.067 ± 0.045.

Turning to N11Y, the abundance fitness was -0.079 ± 0.12.

Consider N11M, for which the abundance fitness was -0.029 ± 0.072.

Take N11I: the abundance fitness is -0.024 ± 0.038.

With N11R, the abundance fitness is -0.042 ± 0.038.

In the case of N11E, the abundance fitness came to 0.031 ± 0.069.

For the variant N11T, the abundance fitness is -0.028 ± 0.066.

For S12R, the abundance fitness is -0.038 ± 0.04.

For the variant S12T, the abundance fitness is 0.082 ± 0.082.

In the case of S12N, the abundance fitness is -0.086 ± 0.083.

In the case of S12Q, the abundance fitness was 0.093 ± 0.068.

Regarding S12F, the abundance fitness is -0.036 ± 0.095.

As to S12D, the abundance fitness is 0.019 ± 0.066.

In the case of S12P, the abundance fitness is -0.126 ± 0.065.

Consider S12Y, for which the abundance fitness is -0.119 ± 0.099.

Consider S12G, for which the abundance fitness amounted to 0.029 ± 0.045.

Consider S12L, for which the abundance fitness is -0.019 ± 0.053.

Consider S12M, for which the abundance fitness came out at 0.088 ± 0.093.

Consider S12A, for which the abundance fitness turned out to be 0.035 ± 0.048.

As to S12E, the abundance fitness stood at 0.039 ± 0.062.

Take S12K: the abundance fitness was -0.035 ± 0.065.

With S12C, the abundance fitness is -0.056 ± 0.07.

Take S12I: the abundance fitness is -0.166 ± 0.11.

On to S12V, for which the abundance fitness was -0.067 ± 0.043.

For the variant Q18S, the abundance fitness is -0.052 ± 0.069.

On to Q18D, for which the abundance fitness was -0.264 ± 0.089.

Consider Q18R, for which the abundance fitness is -0.046 ± 0.062.

Regarding Q18N, the abundance fitness was -0.461 ± 0.32.

With Q18Y, the abundance fitness is -0.23 ± 0.15.

As for Q18P, the abundance fitness is -0.078 ± 0.092.

As for Q18F, the abundance fitness is -0.191 ± 0.074.

Take Q18H: the abundance fitness stood at 0.036 ± 0.17.

Consider Q18L, for which the abundance fitness is -0.049 ± 0.052.

With Q18C, the abundance fitness is -0.074 ± 0.067.

With Q18G, the abundance fitness is -0.034 ± 0.043.

For Q18A, the abundance fitness is -0.003 ± 0.072.

As for Q18W, the abundance fitness was -0.206 ± 0.1.

Q18T: the abundance fitness is -0.148 ± 0.096.

Q18E: the abundance fitness was -0.114 ± 0.1.

For the variant Q18V, the abundance fitness came to 0.001 ± 0.05.

Consider Q18I, for which the abundance fitness was -0.088 ± 0.076.

For Q18K, the abundance fitness was -0.037 ± 0.19.

Q18M: the abundance fitness is 0.249 ± 0.13.

S15H: the abundance fitness is -0.039 ± 0.09.

For the variant S15Y, the abundance fitness amounted to 0 ± 0.095.

As for S15Q, the abundance fitness worked out at 0.082 ± 0.053.

As for S15E, the abundance fitness came to 0.008 ± 0.076.

For the variant S15T, the abundance fitness worked out at 0.004 ± 0.067.

For the variant S15N, the abundance fitness amounted to 0.08 ± 0.1.

Turning to S15P, the abundance fitness is -0.591 ± 0.097.

S15M: the abundance fitness is -0.058 ± 0.079.

S15C: the abundance fitness was -0.006 ± 0.066.

Consider S15F, for which the abundance fitness came to 0.087 ± 0.11.

As to S15W, the abundance fitness was -0.091 ± 0.092.

For the variant S15G, the abundance fitness stood at 0.034 ± 0.032.

In the case of S15R, the abundance fitness was -0.001 ± 0.038.

In the case of S15I, the abundance fitness was found to be 0.002 ± 0.077.

With S15V, the abundance fitness is 0.07 ± 0.037.

As for S15D, the abundance fitness was -0.674 ± 0.1.

Turning to V14C, the abundance fitness was -0.11 ± 0.069.

As for V14G, the abundance fitness was -0.758 ± 0.054.

For the variant V14T, the abundance fitness is -0.743 ± 0.11.

For the variant V14R, the abundance fitness is -0.884 ± 0.083.

On to V14Q, for which the abundance fitness was -1.02 ± 0.26.

V14E: the abundance fitness is -0.945 ± 0.31.

For V14H, the abundance fitness was -0.956 ± 0.2.

In the case of V14W, the abundance fitness was -0.816 ± 0.13.

Take V14K: the abundance fitness was -0.856 ± 0.32.

For V14L, the abundance fitness was -0.763 ± 0.073.

Take V14F: the abundance fitness was -1.06 ± 0.25.

On to V14A, for which the abundance fitness was -0.341 ± 0.048.

As for V14I, the abundance fitness came out at 0.042 ± 0.084.

Turning to V14D, the abundance fitness is -0.704 ± 0.12.

Turning to V14P, the abundance fitness was -0.977 ± 0.19.

Consider V14Y, for which the abundance fitness was -0.803 ± 0.23.

On to V14S, for which the abundance fitness is -0.801 ± 0.068.

Take E9Q: the abundance fitness was -0.127 ± 0.12.

With E9Y, the abundance fitness was -0.129 ± 0.13.

E9T: the abundance fitness was -0.107 ± 0.076.

E9S: the abundance fitness came out at 0.043 ± 0.061.

For the variant E9V, the abundance fitness is -0.157 ± 0.052.

Turning to E9W, the abundance fitness was -0.098 ± 0.049.

For the variant E9P, the abundance fitness worked out at 0.048 ± 0.079.

As to P19N, the abundance fitness is -0.251 ± 0.26.

As for P19H, the abundance fitness is -0.003 ± 0.15.

With P19A, the abundance fitness is -0.018 ± 0.054.

In the case of P19K, the abundance fitness is -0.252 ± 0.18.

Take P19S: the abundance fitness came to 0.051 ± 0.059.

For the variant P19E, the abundance fitness came out at 0.087 ± 0.088.

For P19I, the abundance fitness came to 0.088 ± 0.12.

Consider P19G, for which the abundance fitness was 0.063 ± 0.045.

For P19D, the abundance fitness was -0.101 ± 0.16.

Regarding P19Q, the abundance fitness was found to be 0.093 ± 0.1.

As for P19C, the abundance fitness was -0.179 ± 0.11.

Regarding P19M, the abundance fitness turned out to be 0.015 ± 0.14.

For the variant D10C, the abundance fitness is -0.165 ± 0.099.

As to D10S, the abundance fitness was -0.14 ± 0.061.

For the variant D10I, the abundance fitness was -0.121 ± 0.044.

Consider D10Y, for which the abundance fitness is -0.096 ± 0.12.

In the case of D10W, the abundance fitness is -0.189 ± 0.071.

Take D10A: the abundance fitness is -0.059 ± 0.041.

D10P: the abundance fitness was -0.02 ± 0.071.

Turning to D10Q, the abundance fitness was -0.072 ± 0.072.

Turning to D10L, the abundance fitness is -0.105 ± 0.042.

Turning to D10R, the abundance fitness is -0.158 ± 0.058.

D10H: the abundance fitness turned out to be 0.098 ± 0.13.

Consider D10K, for which the abundance fitness was -0.007 ± 0.11.

Consider D10M, for which the abundance fitness was -0.054 ± 0.058.

Consider D10N, for which the abundance fitness is -0.228 ± 0.13.

With D10T, the abundance fitness was -0.01 ± 0.068.

Consider D10V, for which the abundance fitness is -0.14 ± 0.041.

D10E: the abundance fitness was -0.159 ± 0.077.

As to V13H, the abundance fitness is 0.053 ± 0.12.

Consider V13I, for which the abundance fitness worked out at 0.053 ± 0.11.

Turning to V13D, the abundance fitness was -0.103 ± 0.079.

For V13A, the abundance fitness is -0.125 ± 0.043.

Consider V13M, for which the abundance fitness is -0.143 ± 0.083.

V13Y: the abundance fitness came out at 0.044 ± 0.084.

As for V13E, the abundance fitness is -0.127 ± 0.066.

Take V13Q: the abundance fitness is -0.112 ± 0.065.

As to V13C, the abundance fitness was 0.056 ± 0.11.

Turning to V13N, the abundance fitness was -0.236 ± 0.12.

For the variant V13K, the abundance fitness was -0.183 ± 0.064.

On to V13P, for which the abundance fitness was -0.457 ± 0.088.

For V13W, the abundance fitness is -0.006 ± 0.053.

Regarding V13R, the abundance fitness is -0.113 ± 0.046.

Turning to V13G, the abundance fitness was -0.06 ± 0.03.

Turning to V13L, the abundance fitness is -0.095 ± 0.047.

The record behind these values is the Human Domainome abundance scans (Beltran et al. 2025).
